In this data set the test system is Escherichia coli TOP10. Nature of the data set: shrunken log2 fold change of peptide-encoding DNA abundance (4.5 h post-induction vs induction); higher = less antimicrobial activity (less host growth inhibition). The note with it: time post-induction: 4.5 h; library: site-saturation at positions 5, 18, 19, 20.
With RRIRERPPRLPRPRPRPMSAPRP, the “shrunken log2 fold change” value was 0.00792.

Take RRIRLRPPRLPRPRPRPATQPRP: the “shrunken log2 fold change” value came to 0.00742.

For RRIRWRPPRLPRPRPRPFQSPRP, the “shrunken log2 fold change” value is -0.0153.

Take RRIRMRPPRLPRPRPRPPIHPRP: the “shrunken log2 fold change” value was 0.166.

In the case of RRIRDRPPRLPRPRPRPGTNPRP, the “shrunken log2 fold change” value was -0.344.

As for RRIRKRPPRLPRPRPRPKGFPRP, the “shrunken log2 fold change” value is 0.0233.

As for RRIRMRPPRLPRPRPRPVLKPRP, the “shrunken log2 fold change” value came to 0.072.

As for RRIRGRPPRLPRPRPRPAPLPRP, the “shrunken log2 fold change” value came to 0.893.

On to RRIRNRPPRLPRPRPRPEQTPRP, for which the “shrunken log2 fold change” value was determined as 0.235.

RRIRFRPPRLPRPRPRPCADPRP: the “shrunken log2 fold change” value was -0.102.

Consider RRIRYRPPRLPRPRPRPTNVPRP, for which the “shrunken log2 fold change” value was -0.868.

For the sequence RRIRIRPPRLPRPRPRPQLIPRP, the “shrunken log2 fold change” value is -0.146.

For RRIRLRPPRLPRPRPRPEWHPRP, the “shrunken log2 fold change” value came out at 0.222.

As for RRIRWRPPRLPRPRPRPMTGPRP, the “shrunken log2 fold change” value worked out at 0.019.

For the sequence RRIRNRPPRLPRPRPRPLGQPRP, the “shrunken log2 fold change” value was found to be 0.0394.

Take RRIRARPPRLPRPRPRPGRKPRP: the “shrunken log2 fold change” value was 0.43.

Take RRIRFRPPRLPRPRPRPYQCPRP: the “shrunken log2 fold change” value was -0.0374.

For RRIRMRPPRLPRPRPRPLHEPRP, the “shrunken log2 fold change” value is 0.545.

RRIRYRPPRLPRPRPRPKAFPRP: the “shrunken log2 fold change” value came out at 0.0171.

Regarding RRIRKRPPRLPRPRPRPHAKPRP, the “shrunken log2 fold change” value turned out to be 0.226.

Regarding RRIRNRPPRLPRPRPRPERQPRP, the “shrunken log2 fold change” value came out at 0.221.

Consider RRIRIRPPRLPRPRPRPQDDPRP, for which the “shrunken log2 fold change” value is 0.0213.

Take RRIRQRPPRLPRPRPRPDSAPRP: the “shrunken log2 fold change” value was -0.029.

RRIRTRPPRLPRPRPRPIIMPRP: the “shrunken log2 fold change” value is -0.305.

With RRIRSRPPRLPRPRPRPQDTPRP, the “shrunken log2 fold change” value is -0.265.

For RRIRTRPPRLPRPRPRPWPTPRP, the “shrunken log2 fold change” value came out at 0.371.

Turning to RRIRPRPPRLPRPRPRPNTQPRP, the “shrunken log2 fold change” value is -0.159.

On to RRIRERPPRLPRPRPRPRIIPRP, for which the “shrunken log2 fold change” value turned out to be 0.0824.

For RRIRFRPPRLPRPRPRPRKNPRP, the “shrunken log2 fold change” value was 0.266.

Turning to RRIRQRPPRLPRPRPRPGMKPRP, the “shrunken log2 fold change” value is -0.0822.

Turning to RRIRCRPPRLPRPRPRPRDQPRP, the “shrunken log2 fold change” value amounted to 0.278.

As to RRIRERPPRLPRPRPRPMCSPRP, the “shrunken log2 fold change” value is -0.00794.

As for RRIRTRPPRLPRPRPRPLIKPRP, the “shrunken log2 fold change” value is -1.06.

On to RRIRQRPPRLPRPRPRPDVWPRP, for which the “shrunken log2 fold change” value was -0.0325.

Consider RRIRNRPPRLPRPRPRPGCDPRP, for which the “shrunken log2 fold change” value is -0.0442.

Consider RRIRIRPPRLPRPRPRPGATPRP, for which the “shrunken log2 fold change” value is -0.0576.

Take RRIRNRPPRLPRPRPRPACTPRP: the “shrunken log2 fold change” value is -0.0652.

As to RRIRTRPPRLPRPRPRPGIAPRP, the “shrunken log2 fold change” value is -0.0278.

As to RRIRARPPRLPRPRPRPGVEPRP, the “shrunken log2 fold change” value is 0.118.

For the sequence RRIRGRPPRLPRPRPRPSGAPRP, the “shrunken log2 fold change” value amounted to 0.688.

On to RRIRLRPPRLPRPRPRPGWAPRP, for which the “shrunken log2 fold change” value was found to be 0.691.

RRIRTRPPRLPRPRPRPCPSPRP: the “shrunken log2 fold change” value is -0.0705.

Take RRIRWRPPRLPRPRPRPTWVPRP: the “shrunken log2 fold change” value is 0.688.

Consider RRIRIRPPRLPRPRPRPALLPRP, for which the “shrunken log2 fold change” value worked out at 0.178.

Regarding RRIRCRPPRLPRPRPRPDAKPRP, the “shrunken log2 fold change” value turned out to be 0.0864.

Turning to RRIRCRPPRLPRPRPRPKGMPRP, the “shrunken log2 fold change” value is -0.148.

For the sequence RRIRCRPPRLPRPRPRPWWQPRP, the “shrunken log2 fold change” value stood at 0.0101.

As for RRIRPRPPRLPRPRPRPNCWPRP, the “shrunken log2 fold change” value worked out at 1.74.

For RRIRLRPPRLPRPRPRPELWPRP, the “shrunken log2 fold change” value was 0.626.

Regarding RRIRGRPPRLPRPRPRPGGTPRP, the “shrunken log2 fold change” value stood at 1.09.

As to RRIRHRPPRLPRPRPRPQTPPRP, the “shrunken log2 fold change” value was 0.374.

Take RRIRVRPPRLPRPRPRPAQPPRP: the “shrunken log2 fold change” value was determined as 0.228.

Consider RRIRARPPRLPRPRPRPPARPRP, for which the “shrunken log2 fold change” value is 0.874.

Regarding RRIRERPPRLPRPRPRPPDSPRP, the “shrunken log2 fold change” value was -0.303.

Take RRIRSRPPRLPRPRPRPKQMPRP: the “shrunken log2 fold change” value is -0.0354.

RRIRKRPPRLPRPRPRPVPRPRP: the “shrunken log2 fold change” value turned out to be 0.72.

In the case of RRIRVRPPRLPRPRPRPHGLPRP, the “shrunken log2 fold change” value worked out at 0.0861.

Take RRIRTRPPRLPRPRPRPSVFPRP: the “shrunken log2 fold change” value is -0.337.

In the case of RRIRKRPPRLPRPRPRPMLEPRP, the “shrunken log2 fold change” value came to 0.621.

For the sequence RRIRHRPPRLPRPRPRPAKSPRP, the “shrunken log2 fold change” value stood at 0.076.

Regarding RRIRLRPPRLPRPRPRPWYEPRP, the “shrunken log2 fold change” value turned out to be 0.0242.

Take RRIRLRPPRLPRPRPRPPWSPRP: the “shrunken log2 fold change” value worked out at 0.259.

With RRIRYRPPRLPRPRPRPEEDPRP, the “shrunken log2 fold change” value is -0.0024.

On to RRIRVRPPRLPRPRPRPFAEPRP, for which the “shrunken log2 fold change” value is 0.171.

Take RRIRKRPPRLPRPRPRPLEDPRP: the “shrunken log2 fold change” value was -0.0129.

Regarding RRIRARPPRLPRPRPRPKREPRP, the “shrunken log2 fold change” value came out at 0.422.

As for RRIRLRPPRLPRPRPRPKMMPRP, the “shrunken log2 fold change” value is -0.167.

RRIRSRPPRLPRPRPRPESFPRP: the “shrunken log2 fold change” value is -0.0898.

Regarding RRIRCRPPRLPRPRPRPYVGPRP, the “shrunken log2 fold change” value is -0.163.

With RRIRFRPPRLPRPRPRPCQQPRP, the “shrunken log2 fold change” value came out at 0.0307.

In the case of RRIRNRPPRLPRPRPRPKKGPRP, the “shrunken log2 fold change” value was 0.0558.

In the case of RRIRFRPPRLPRPRPRPMDIPRP, the “shrunken log2 fold change” value is -0.0635.

Take RRIRVRPPRLPRPRPRPAMSPRP: the “shrunken log2 fold change” value was -0.096.

Turning to RRIRKRPPRLPRPRPRPTWTPRP, the “shrunken log2 fold change” value stood at 0.0915.

As for RRIRTRPPRLPRPRPRPQVPPRP, the “shrunken log2 fold change” value worked out at 0.101.

RRIRIRPPRLPRPRPRPARPPRP: the “shrunken log2 fold change” value worked out at 0.474.

As to RRIRRRPPRLPRPRPRPHALPRP, the “shrunken log2 fold change” value amounted to 0.0116.

As to RRIRSRPPRLPRPRPRPKQYPRP, the “shrunken log2 fold change” value is -0.361.

For RRIRMRPPRLPRPRPRPQLEPRP, the “shrunken log2 fold change” value turned out to be 0.0634.

For the sequence RRIRMRPPRLPRPRPRPPLGPRP, the “shrunken log2 fold change” value was 1.08.

For RRIRGRPPRLPRPRPRPQAGPRP, the “shrunken log2 fold change” value was determined as 0.695.

For the sequence RRIRWRPPRLPRPRPRPIGAPRP, the “shrunken log2 fold change” value was 0.0619.

As to RRIRARPPRLPRPRPRPSYGPRP, the “shrunken log2 fold change” value was -0.282.

Consider RRIRLRPPRLPRPRPRPYFQPRP, for which the “shrunken log2 fold change” value was -0.269.

As for RRIRARPPRLPRPRPRPDWWPRP, the “shrunken log2 fold change” value was found to be 0.608.

Take RRIRTRPPRLPRPRPRPHMGPRP: the “shrunken log2 fold change” value was -0.00538.

For the sequence RRIRKRPPRLPRPRPRPTGNPRP, the “shrunken log2 fold change” value was found to be 0.563.

RRIRWRPPRLPRPRPRPSLPPRP: the “shrunken log2 fold change” value is -0.133.

In the case of RRIRMRPPRLPRPRPRPDCKPRP, the “shrunken log2 fold change” value is -0.0414.

On to RRIRDRPPRLPRPRPRPIDSPRP, for which the “shrunken log2 fold change” value was -0.0258.

On to RRIRHRPPRLPRPRPRPGVFPRP, for which the “shrunken log2 fold change” value was determined as 0.0667.

In the case of RRIRSRPPRLPRPRPRPYQIPRP, the “shrunken log2 fold change” value was -0.106.

For RRIRQRPPRLPRPRPRPGEGPRP, the “shrunken log2 fold change” value was found to be 0.00168.

On to RRIRQRPPRLPRPRPRPYEMPRP, for which the “shrunken log2 fold change” value is -0.153.

Turning to RRIRFRPPRLPRPRPRPWAIPRP, the “shrunken log2 fold change” value turned out to be 0.268.

RRIRGRPPRLPRPRPRPHLDPRP: the “shrunken log2 fold change” value is 0.34.

Consider RRIRRRPPRLPRPRPRPVVQPRP, for which the “shrunken log2 fold change” value stood at 0.534.

For the sequence RRIRNRPPRLPRPRPRPLNPPRP, the “shrunken log2 fold change” value is -0.133.

Turning to RRIRSRPPRLPRPRPRPRENPRP, the “shrunken log2 fold change” value is 0.468.

Take RRIRVRPPRLPRPRPRPVRDPRP: the “shrunken log2 fold change” value is 0.0998.

For the sequence RRIRVRPPRLPRPRPRPMDNPRP, the “shrunken log2 fold change” value was 0.0397.

Consider RRIRRRPPRLPRPRPRPSFDPRP, for which the “shrunken log2 fold change” value was 0.135.

On to RRIRTRPPRLPRPRPRPVPQPRP, for which the “shrunken log2 fold change” value came out at 0.00694.

As for RRIRNRPPRLPRPRPRPQTIPRP, the “shrunken log2 fold change” value is -0.194.

Consider RRIRARPPRLPRPRPRPNRFPRP, for which the “shrunken log2 fold change” value stood at 0.145.

Take RRIRVRPPRLPRPRPRPIFFPRP: the “shrunken log2 fold change” value worked out at 0.125.

For the sequence RRIRARPPRLPRPRPRPRQWPRP, the “shrunken log2 fold change” value stood at 0.68.

As to RRIRGRPPRLPRPRPRPTCAPRP, the “shrunken log2 fold change” value stood at 1.11.

Regarding RRIRHRPPRLPRPRPRPDKNPRP, the “shrunken log2 fold change” value is -0.496.

Turning to RRIRWRPPRLPRPRPRPIDFPRP, the “shrunken log2 fold change” value is -3.4e-05.

Consider RRIRHRPPRLPRPRPRPTRKPRP, for which the “shrunken log2 fold change” value was found to be 0.00421.

For RRIRIRPPRLPRPRPRPSNDPRP, the “shrunken log2 fold change” value is -0.779.

In the case of RRIRGRPPRLPRPRPRPQPYPRP, the “shrunken log2 fold change” value is -0.0844.

Regarding RRIRYRPPRLPRPRPRPSIAPRP, the “shrunken log2 fold change” value is -0.216.

Turning to RRIRLRPPRLPRPRPRPISNPRP, the “shrunken log2 fold change” value was -0.17.

With RRIRHRPPRLPRPRPRPRHRPRP, the “shrunken log2 fold change” value was -0.029.

Take RRIRSRPPRLPRPRPRPVICPRP: the “shrunken log2 fold change” value is -0.0365.

With RRIRSRPPRLPRPRPRPRYAPRP, the “shrunken log2 fold change” value was -0.0842.

Take RRIRNRPPRLPRPRPRPAQGPRP: the “shrunken log2 fold change” value came to 0.279.

Regarding RRIRTRPPRLPRPRPRPWCSPRP, the “shrunken log2 fold change” value is -0.799.

In the case of RRIRGRPPRLPRPRPRPSQIPRP, the “shrunken log2 fold change” value is -0.111.

RRIRMRPPRLPRPRPRPTNAPRP: the “shrunken log2 fold change” value worked out at 0.408.

For the sequence RRIRWRPPRLPRPRPRPQLMPRP, the “shrunken log2 fold change” value turned out to be 0.13.

With RRIRPRPPRLPRPRPRPYPRPRP, the “shrunken log2 fold change” value amounted to 0.0824.

Regarding RRIRHRPPRLPRPRPRPPQYPRP, the “shrunken log2 fold change” value was -0.154.

Values taken from the supplement of paper PMC9112550, “Optimization of the antimicrobial peptide Bac7 by deep mutational scanning” (BMC Biology, 2022).
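Note: peptides expressed intracellularly from a pBAD plasmid library in pooled LB shake-flask culture, induced with 0.3% L-arabinose, DNA abundance read by NGS, three biological replicates, DESeq2 with apeglm shrinkage.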
